Earlier results as cited in patent publication US4347323A, “Glycerol kinase from Streptomyces canus” (Toyo Jozo Kabushiki Kaisha, priority 1979, dated 1982).

Settings: known glycerol kinases

B1: E.Co-GK: known glycerol kinase of Escherichia coli (protein, UniProt P0A6F3 2-502, looked up)
Glycerol kinase: TEKKYIVALDQGTTSSRAVVMDHDANIISVSQREFEQIYPKPGWVEHDPMEIWATQSSTLVEVLAKADISSDQIAAIGITNQRETTIVWEKETGKPIYNAIVWQCRRTAEICEHLKRDGLEDYIRSNTGLVIDPYFSGTKVKWILDHVEGSRERARRGELLFGTVDTWLIWKMTQGRVHVTDYTNASRTMLFNIHTLDWDDKMLEVLDIPREMLPEVRRSSEVYGQTNIGGKGGTRIPISGIAGDQQAALFGQLCVKEGMAKNTYGTGCFMLMNTGEKAVKSENGLLTTIACGPTGEVNYALEGAVFMAGASIQWLRDEMKLINDAYDSEYFATKVQNTNGVYVVPAFTGLGAPYWDPYARGAIFGLTRGVNANHIIRATLESIAYQTRDVLEAMQADSGIRLHALRVDGGAVANNFLMQFQSDILGTRVERPEVREVTALGAAYLAGLAVGFWQNLDELQEKAVIEREFRPGIETTERNYRYAGWKKAVKRAMAWEEHDE
pH stability: 6.5-7 pH
